{"source": "the nanobody polyreactivity screen of Harvey et al. (2022)", "data": [{"test": "yeast display, Sf9 membrane polyspecificity reagent, FACS + sequencing; frameworks hold sequencing errors", "procedure,_shortened": "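Nanobodies came from a synthetic yeast display library in Saccharomyces cerevisiae BJ5465, induced with galactose for 36–48 hours and stained for 1 hour at 4 °C with 10% biotinylated, detergent-solubilized Sf9 membrane reagent. Cells were enriched on streptavidin microbeads and then FACS-sorted, with low and high (top ~1%) gates set on anti-HA fluorescence for expression and streptavidin fluorescence for reagent binding. Each polyreactivity label reflects the gate a clone came from. Genes were amplified by colony PCR, sequenced by MiSeq 2 × 250 and filtered by CDR length.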", "values": [{"sequence": "QVQLVESGGGLVQAGGSLRLSCAASGFIFKSNGMGRYRPEPGKERELVSAIRRSGGSTYYADSVKGRFSISRDYAKNTFYLQMNSLKPEVTAVYYCGIRRGVYTHWYDYWGQGTQVTVSS", "polyreactivity (PSR sort gate)": "high polyreactivity"}, {"sequence": "QVQLVESGGGLVQAGGSLRLRCAASGRTFVGTAMGWYRQAPGKERELVAAISWDGGSPYYADSVKGRFTISRDNAKNTVYLQMNSLKPEDTAVYYCAALYRPSAFRGYGYWGQGTQVTVSS", "polyreactivity (PSR sort gate)": "high polyreactivity"}, {"sequence": "QVQLVESGGGLVQAGRSLRLSCAASGSTYGYYAMGWSRQAPGKERELVAAISSTGGRTYYADSVKGRFTISRDNAKNTVYVQMNSLKPEDTAVYYCAARQLSSHYDYWGQGPQVTVSS", "polyreactivity (PSR sort gate)": "low polyreactivity"}, {"sequence": "QVQLVESGGGLVQAGGSLRLSCAASGTTLYYYAMGWSRQAPGKERELVASITKSGASTYYADSVKGRFTISRDNAKNTVYLQMNSLKPEDTAVYYCARDPFWRGYTPRHYNYWGQGTQVTVSS", "polyreactivity (PSR sort gate)": "low polyreactivity"}, {"sequence": "QVQLVESGGGLVQAGGSLRLSCAASGFTFWKYAMGWYRQAPGKEREFVPAISWSGGNTYYADSVKGRFTISRDNAKNTVYLQMNSLKPEDTADYYCARRGRYYLYTDDYDYWGQGTQVTVSS", "polyreactivity (PSR sort gate)": "high polyreactivity"}, {"sequence": "QVQLVESGGGLVQAGGSLRLSCAASGFILRYYAMGWYRQAPGKERELVAAITRGGSTYDADSVKGRFTISRDNAKNTVYLQMNSLKPEDTAVYYFDRRVGYKFSYDYWGQGTQVTVSS", "polyreactivity (PSR sort gate)": "high polyreactivity"}, {"sequence": "QVQLVESGGGLVQAVCSLRLSCAASGRTFHGNAMGWYRQAPGKERELVAAISYSGGRTYYADSVKGRFTISRDNAKNTVYLQMNSLKPEDTAVYYCAAWGSSYSFDYWGQGTQVTVSS", "polyreactivity (PSR sort gate)": "high polyreactivity"}, {"sequence": "QVQLVESGGGLVQAGGSLRLSCAASGSIFVTYDLGWYRQAAGKERELVAGISGSGSTNYADSVKGRFTISRDNAKNTVYLQMNSLKPEDTAVYYCNTDGLWSAEYDYWGQGTQVTVSS", "polyreactivity (PSR sort gate)": "low polyreactivity"}, {"sequence": "QVQLVESGGGLVQAGGSLRLSCPASGSTLWGYAMGWYRQAPGKERELVAAITSSGGITYYADSVKGRFTISRDNAKNTVYLQMNSLKPEDTAVYYCAVDYYVVGWTYLYYYRGQGTQVTVSS", "polyreactivity (PSR sort gate)": "low polyreactivity"}, {"sequence": "QDQLVESRGALVQAGGSLRLSCAASGITFVRNAMGWYRQAPGKERELVAAISSGGSTYYADSVKGRFTISRDNAKNTVYLQMNSLTREDTAVYYCAVLSSWRFSGYDYWGQGSQVTVSS", "polyreactivity (PSR sort gate)": "low polyreactivity"}, {"sequence": "QVQLVESGGGLVQAGGSLRLSCAASGSIFIRYAMGWYRQAPGKERELVAAITRSGGSTYYADSVKGRFTISRDNAKNTVYLQMNSLKPEDTAVYYCNVLLRRNGYFARGDYWGQGTQVTVSS", "polyreactivity (PSR sort gate)": "high polyreactivity"}, {"sequence": "QVQLVESGGGLVQAGGSLRLSCAASGSIFVLNAMGWYRQAPGKERELVAAISSADSTTYADSVKGRFTISRDNAKNSVYLQMNSLKPEDTAVYYCAADWWYVLIFDYWGQGTQVTVSS", "polyreactivity (PSR sort gate)": "low polyreactivity"}, {"sequence": "QVQLVESGGGLVQAGGSLRLSCAASGFTFPVYGMGWYRQAPGKERELVAAISSRGGNTYYADSVKGRFTISRDNAKNTVYLQMNSLKPEDTAVYYCAAGGITYTGDDYWGQGTQVTVSS", "polyreactivity (PSR sort gate)": "high polyreactivity"}, {"sequence": "QVQLVESGGGLVQAGGSLRLSCASSGTLYRYAMGWYIQATGKERELVAAISSNGGSTYYADSVKGRFTISRDNEKNTVYLQMNSLKPEDTAVYYCNALSRRFPLYGFWGQGTQVTVSS", "polyreactivity (PSR sort gate)": "high polyreactivity"}, {"sequence": "QVQLVESGGGLVQAGGSLRLSCAASGLIFRVYAMGWYRQAPGKERELVAAITWSDGSTYYADSVKGRFTISRDNAKNTVYLQMNSLKPEDTAVYYCATAYFRVYHSRYYYWGQGTQVTVSS", "polyreactivity (PSR sort gate)": "high polyreactivity"}, {"sequence": "QVQLVESGGGLVQAGGSLRLSCAASGRTFAYNDRGWYRQATGKERELVAAISWSDGTTYYADSVKGRFTISRDNAKNTVYLQMYSLKPEDTAVYDCAAESYPAVVASYVSEFDYWGQGTQVPVSS", "polyreactivity (PSR sort gate)": "low polyreactivity"}, {"sequence": "QVQLVESGGGLVQAGGSLRLSCAASGRTFSTYTMGWYRQAPGKERELVAAITSSGGGTYYADSVKGRFTISRDNAKNTVYLQMNSLKPEDTAVSYCGTVRTYRPPVRRGYWGQGTQVTVSS", "polyreactivity (PSR sort gate)": "high polyreactivity"}, {"sequence": "QVQLVESGGGLVQAGGSLRLSCAASGSIFSIYAMGWYRQAPGTERELVASINSGDSTYYADSVKGRFTISRDNAKNTVYVQMNSLKPDDTAVYNCAATLVTVPLYRFDYWGQGTQVTVSS", "polyreactivity (PSR sort gate)": "low polyreactivity"}, {"sequence": "QVQLVESGGGLVQAGGSLRLSCAASGSIFNANAMGWYRQAPGNERELVAGIRSGSSTNYADSVKGRFTISRDNAKNTVYLQMNSLKPEDTAVYYCATEGYWVYGFDDEYWGQGTQVTVSS", "polyreactivity (PSR sort gate)": "low polyreactivity"}, {"sequence": "QVQLVESGGGLVQAGGSLRLSCAASGSTFYPYAMGWYRQAPGKERELVAAISSGGSTNYADSVKGRFTISRDNAKYTVYLQMNSLKPEDTAVYYCAAASGSRRHGYWGQGTQVTVSS", "polyreactivity (PSR sort gate)": "high polyreactivity"}, {"sequence": "QVQLVESGGGLVQAGGSLRLSCAASGFTFADNAMGGYREAPGKERQFVASITYSTGSTYADSVKGRFTISRDNAKNTVYLQMHSLTPEDTAVYYCAVDNISNWAVENDYWGQGTQVTVSS", "polyreactivity (PSR sort gate)": "low polyreactivity"}, {"sequence": "QVQLVESGGGLDQAGGSLRLSSAASGITFYGYDMGWYRQAPGKARELVAAITSDGITNYADSVKGRFTFSRDNAKNTVYLHMNSLKPEDTAVYYCAADLSFYRRYEWYYYWGQGTQVTVSS", "polyreactivity (PSR sort gate)": "low polyreactivity"}, {"sequence": "QVQLVESGGGLFQAGGSLRLSCAASGLTLYFYVMGWYRQAPGKERELVAAISSTGSTYYADSVKGRFTISRDNAKNTVYLQMNSLKPEDTAVYYCAARYGGHYGAEYYWGQGSQVTVSS", "polyreactivity (PSR sort gate)": "high polyreactivity"}, {"sequence": "QVQLVESGGGLVQAGGSLRLSCAASGIIFVYYTMGWYRQAPGKERELVAAITSGGSTYYADSVKGRFTISRDNAKNTVYLQMNSLKPEDTAVYYCAAVGRPPYAGDRGYWGQGTQVTVSS", "polyreactivity (PSR sort gate)": "high polyreactivity"}, {"sequence": "QFQLEESAGGLVQAGGSLRLSCAASGRTFADYAMGWYRPAPGKETELVAAISSGGSTYFAVSVKGRFTISRDNAKNTVYLQMNSLKPEDTAVYYCTARWGYRLGYWGQGTQVTVSS", "polyreactivity (PSR sort gate)": "high polyreactivity"}, {"sequence": "QVQLVESGGGLVQAGGSLRLSCAASGSIFGGNTMGWYRKAPGKERELVAAITNGGRTNYADSVKGRFTISRDNAKNTVYLQMNSLKPEDTAVYYCNAVTYSRRYAYYYWGQGTQVTVSS", "polyreactivity (PSR sort gate)": "high polyreactivity"}, {"sequence": "QVQLVESGGGLVQAGGSLRLSCAASGSTFGYNAMGWYRQAPGKERELVAAIRISGGTTYYADSVKGRFTSSRDNAKNTVYLQMNSPKPSDTAVYYCAAGTAGTTGSPKFSGYGYDYWGQGTQVTVSS", "polyreactivity (PSR sort gate)": "low polyreactivity"}, {"sequence": "QDQLVESGGGLVQAGGRLRLSCAASGSIFNYYTMGWYRQAPGKETELVAAITWSGGRTYYADSVKGRFTISRDNAKNTVYLQMNSLKPEDTAVYYCNAVAYKPGGGEDFESWGQGTQVTVSS", "polyreactivity (PSR sort gate)": "high polyreactivity"}, {"sequence": "QVQLVESAGGLVQAGGSLRLSCAASGRNFYYYAMGWYRQAPGKERELVAAISIGGITYADSVKGRFTISRDNAKNTVYLQMNRLKPEDTAVYYCAATARQSRGRYYWGQGTQVTVSS", "polyreactivity (PSR sort gate)": "low polyreactivity"}, {"sequence": "QVQLVESGGGLVQAGGSLRLSCAASGSTFSIYTMGWYRQAPGKERELVAAINTGDGDTYYADSVKGRFTISRDNAKNTFYLQMNSLKPEDTAVYYCAAVYSQLSNLYYYWGQGTQVTVSS", "polyreactivity (PSR sort gate)": "low polyreactivity"}, {"sequence": "QVQLVESGGGLVQAGGSLRLSCAASGITFGVYGMGWYRQAPGKERELVAAIDQSGDSTYYADSVKGRFTISRDNAKNTVYLQMNSLKPEDTAVYYCAAQSYDYWYDYDYWGQGTQVTVSS", "polyreactivity (PSR sort gate)": "high polyreactivity"}, {"sequence": "QVQLVESGGGLVQAGGSLRLSCAASGFIFGRYAMGWYRQAPGKERELVAAITASGGRTYYADSVKGRFTISRDNAKNTVYLQMNSLKPEDTAVYYCNTPSLWCGEDYWGQGTQVTVSS", "polyreactivity (PSR sort gate)": "high polyreactivity"}, {"sequence": "QLQLVESGGGLVQAGGSLRLSCAASGRIFVANTMGWYRQAPGKERELVAAISRGSTYYADSVKGRFTISRDNAKNTVYLQMKSLKPEDTAVYYCAVKLAYGYYYWGLGTQVTVSS", "polyreactivity (PSR sort gate)": "high polyreactivity"}, {"sequence": "QVQLVESGGGLVQAGGSLRLSCAASGRIFYSNTMGWYRQAPGKVRELVAAISRRGGSTYYADSVKGRFTISRDNAKTTVYLQMNSLKPEDTALYYCNTGYSTRLHDYWGQGTQVTVSS", "polyreactivity (PSR sort gate)": "high polyreactivity"}, {"sequence": "QVQLVESGGGLVQAGGSLRLSCAASGRTFSVYAMGWYRQAPGKERELVARIRSGGSTYYADSVKGRFTISRDNAKNTVYLQMNRLKPEDTAVYYCATQHYGPSSNARGVYRYYYWGHGTQVTVSS", "polyreactivity (PSR sort gate)": "high polyreactivity"}, {"sequence": "QVQLVESVGGLVQAGGSLRLSCAASGFIIVEYDMGWYRQAPGKEREFVAAINFSGGSTYYADSVKGRFTISRDNAKNTVYLQMNSLKPEDNAVYYCAADVVRYYYTYYYWGQGTHVTVSS", "polyreactivity (PSR sort gate)": "low polyreactivity"}, {"sequence": "QVQLVQSRGGLVQAGGSLRLSCSASGFIFIYNVMGWYRQAPGKERDMVAAINRGGSTKYADSVKGRFTISRDNAKITVYLQMNSLKPEDSAVYYCAARYDGSRYHYDGYDYWGQGTQVTVSS", "polyreactivity (PSR sort gate)": "low polyreactivity"}, {"sequence": "QVQLVESGGCLVQAGGSLRLSCAASGFILSGNTMGWYRQAPGKERELVAGINDDSSTYYADSVKGGFTISRDNAKNTVYLQMNSLKPEDTAVYYCNAGQSWYPSWYYYWGQGTQVTVSS", "polyreactivity (PSR sort gate)": "low polyreactivity"}, {"sequence": "QVQLVESGGGIVQAGGSLRLSCAASGRTFSWNTMGWYRQAPGKERELVAAITRVGTTYYADSVKGRFTISRDNAKNTVYLQMNSLKPEDTAVYYCAVKGPRWAYPGVDYWGQGTQVTVSS", "polyreactivity (PSR sort gate)": "high polyreactivity"}, {"sequence": "QVQLVESGGGLVQAGGSLRLSCAPSGSIFGGYAMGWYRQAPGKERELVAAITWGGGSTYYADSVKGRFTISRDNAKNTVYLQMISLKPEATAVYYCAADRSWYDWEDDYWGQGTQVTVSS", "polyreactivity (PSR sort gate)": "low polyreactivity"}, {"sequence": "QFQLVESGGGLVQAGGSLRLSCAASGFTFPYNGMGWYRQAPGKERELVAAISYGGGGKYYADSVKGRFTISRDNAKNTVYLQMNSLKPEDTAVYYCATDDPLSQINEQGMDYWGQGTQVTVSS", "polyreactivity (PSR sort gate)": "low polyreactivity"}, {"sequence": "QVQLVESGGGLVQAGGSLRLSCAASGIIFPPYTMGWYRQAPGKERELVAGITGNSGTTYYADSVKGRFTISRDNAKNTVYLQMNSLKPEDTAVYYCAVRDVYHRYWGQGTQVTVSS", "polyreactivity (PSR sort gate)": "high polyreactivity"}, {"sequence": "QVQLVESGGGLVQAGGSLRLSCAASGSIFWYNAMAWYRQAPGKERELVAAITGTGDRTYYADSVKGRFTISRDNAKNSVYLQMNSLKPEDSAVYYCAAAYGAYYPWGYDYWGQGTQVTVSS", "polyreactivity (PSR sort gate)": "low polyreactivity"}]}]}
